In publication PMC7966918 (Cell Research, 2021):

B1: P5A-2G9 (full-length IgG) (antibody, V domains shown)
VH: QVQLVESGGGVVQPGRSLRLSCAASGFTFSSYGMHWVRQAPGKGLEWVAVIWYDGSNKYYADSVKGRFTISRDNSKNTLYLQMNSLRAEDTAVYYCARWFHTGGYFDYWGQGTLVTVSS
VL: QPVLTQPPSSSASPGESARLTCTLPSDINVSSYNIYWYQQKPGSPPRYLLYYYSDSDKGQGSGVPSRFSGSKDASANTGILLISGLQSEDEADYYCMIWPSNALYVFGTGTKVTVL
B2: P2B-1A10 (full-length IgG) (antibody, V domains shown)
VH: EVQLVESGGGLIQPGGSLRLSCAASGFTVSSNYMSWVRQAPGKGLEWVSVIYSGGSTYYADSVKGRFTISRDNSKNTLYLQMNSLRAEDTAVYYCAREGPKSITGTAFDIWGQGTIVTVSS
VL: DIQMTQSPSSLSASVGDRVTITCQASQDISNYFNWYQQKPGKAPKLLIYDASNLETGVPSRFSGSGSGTDFTFTISSLQPEDIATYYCQQYDNLPMYTFGQGTKLEIK

Biological target: T1, SARS-CoV-2 S protein extracellular domain (S-ECD, 1–1208 aa) (SARS-CoV-2, Wuhan-Hu-1 (GenBank …, UniProt P0DTC2, proline substitution at residue 986 | proline substitution at residue 987 | …))
T1 construct: also called S trimer; trimeric S protein
Assay: cryo-EM structure
Settings: both partners purified

Binder	binding result
B1	binds
B2	binds
